Laboratory results reported in patent US20160114017A1 (UNIVERSITY OF PITTSBURGH OF THE COMMONWEALTH SYSTEM OF …, published 2016).

Target: T1, HLA-A2 on the cell surface (HLA-A2 transfected T2 cell line; SNB19 glioma cells) (human)
T1 construct: whole, on cells; Class I MHC on cells; also called HLA-A*0201
Test: T2 cell HLA-A2 stabilisation, flow cytometry, peptide 1 nM overnight
Procedure: The binding capability of these modified peptides was assessed using an HLA-A2 transfected T2 cell line. Aliquots of T2 cells were incubated with modified peptides or IL-13Rα2₃₄₅₋₃₅₃ at 1 nM overnight, and then examined for the surface expression levels of HLA-A2 on T2 cells by flow cytometry. Since stable binding of HLA-A2 with peptide epitopes further stabilizes the surface expression of HLA-A2 (Francini et al., 2002; Alves et al., 2003), quantitative expression levels of HLA-A2, which is indicated by Mean Fluorescence Intensity (MFI) in Table 1, correlate with the binding affinity of the peptide-epitopes that are co-incubated with the T2 cells.

Binding Index (MFI) | Binder
237 MFI | WLPFGFILI (Synthetic peptide incubated with T2 cells at 1 nM overnight; also called IL-13Rα345-353; wild type IL-13Rα2345-353) [Native IL-13Rα2345-353 peptide]
376 MFI | WLPFGFILV (Synthetic modified peptide; also called IL-13Rα2345-9V) [IL-13Rα2-V9 peptide (I replaced with V at P9)]
